assay: soluble on expression in E. coli; label from the status in PepcDB or PDB records

| Sequence | soluble on expression in E. coli |
| --- | --- |
| MGHHHHHHSHMSFVECPYHSPAERLVAEADEGGPSAITGMGLCFRCLLFSFSGRSGVEGGRVDLNVFGSLGLQPWIGSSRCWGGPCSSALRCGWFSSWPPPSKSAIPIGGGSRGAGRVSRWPPPHWLEAWRVSPRPL | not soluble |
| MSLQADFNRPVLAVDTGTSRLSLALRADGETRLFHQEVGSRQSELILPEIRTLFRDAGITAADLGAVVYAQGPGAFTGLRIGIGVAQGLATPFDTPLIGVPSLDAAASLPPPQSCILAATDARMGEVFYAWFDTLNCHRLSDYQVGRAADIRLPEGCAFSDGIGSAFALEEAPPFSGRPDMPTAADFLALAAKGGYPAVHAAHAGLLYVRNKIALTAKEQAERRAEGHHHHHH | soluble |
| LQERDIVPVDASYEVKELYVPENKLHLAKTDAETLPALKINKVDMQWVQVLAEGWATPLNGFMREREYLQCLHFDCLLDGGVINLSVPIVLTATHEDKERLDGCTAFALMYEGRRVAILRNPEFFEHRKEERCARQWGTTCKNHPYIKMVMEQGDWLIGGDLQVLDRVYWNDGLDQYRLTPTELKQKFKDMNADAVFAFQLRNPVHNGHALLMQDTHKQLLERGYRRPVLLLHPLGGWTKDDDVPLMWRMKQHAAVLEEGVLNPETTVVAIFPSPMMYAGPTEVQWHCRARMVAGANFYIVGRDPAGMPHPETGKDLYEPSHGAKVLTMAPGLITLEIVPFRVAAYNKKKKRMDYYDSEHHEDFEFISGTRMRKLAREGQKPPEGFMAPKAWTVLTEYYKSLEKA | soluble |
| APGAGPGVRRRQRSLEEIPRLGQLRFFFQLFVQGYALQLHQLQVLYKAKYGPMWMSYLGPQMHVNLASAPLLEQVMRQEGKYPVRNDMELWKEHRDQHDLTYGPFTTEGHHWYQLRQALNQRLLKPAEAALYTDAFNEVIDDFMTRLDQLRAESASGNQVSDMAQLFYYFALEAICYILFEKRIGCLQRSIPEDTVTFVRSIGLMFQNSLYATFLPKWTRPVLPFWKRYLDGWNAIFSFGKKLIDEKLEDMEAQLQAAGPDGIQVSGYLHFLLASGQLSPREAMGSLPELLMAGVDTTSNTLTWALYHLSKDPEIQEALHEEVVGVVPAGQVPQHKDFAHMPLLKAVLKETLRLYPVVPTNSRIIEKEIEVDGFLFPKNTQFVFCHYVVSRDPTAFSEPESFQPHRWLRNSQPATPRIQHPFGSVPFGYGVRACLGRRIAELEMQLLLARLIQKYKVVLAPETGELKSVARIVLVPNKKVGLQFLQRQC | not soluble |
| SNASKEKREKLEAYQHLFYLLQTNPTYLAKLIFQMPQNKSTKFMDSVIFTLYNYASNQREEYLLLRLFKTALQEEIKSKVDQIQEIVTGNPTVIKMVVSFNRGARGQNALRQILAPVVKEIMDDKSLNIKTDPVDIYKSWVNQMESQTGEASKLPYDVTPEQALAHEEVKTRLDSSIRNMRAVTDKFLSAIVSSVDKIPYGMRFIAKVLKDSLHEKFPDAGEDELLKIIGNLLYYRYMNPAIVAPDAFDIIDLSAGGQLTTDQRRNLGSIAKMLQHAASNKMFLGDNAHLSIINEYLSQSYQKFRRFFQTACDVPELQDKFNVDEYSDLVTLTKPVIYISIGEIINTHTLLLDHQDAIAPEHNDPIHELLDDLGEVPTIESLIGESS | soluble |
| MIFLIVLKYPVSLNVIRKLKTGDVVYYTGKIVVMDRSVVDILEKYERYEGTKLYDLTGEIVVLGTFRKNKLQFQEMTEELLERLFLLGVNGVILERVRPFSATKRFSRVLFEPLEEIRGTRRVIYKTPDSKKLEELEVEKLVLRVVQDSSGKVYSKV | not soluble |
| MGSDKIHHHHHHMLLKPDQRLKLDDTDDNLFYAYPRFVTHVDEGFIQQLTDLYRERLQPNTRILDMMSSWVSHLPEEIKFAHVEGHGLNAEELGRNPQLNHYFVQNLNENPGLPLPDQEFDAVLNCVSVQYLQYPEAVFSEIHRILKPGGVAIISFSNRMFYQKAIQAWRDASEPGRLELVKRYFASVPGFSTPEIIARKSTAPNFLQWLGAPGGDPFYAAIAHREGFA | not soluble |
| MSLSQGALYLVPTPIGNLEDMTFRAIRMLKEADIIAAEDTRNTVKLLNHFEITTRMTSYHQFTKENKEDNIIQRMLDGEVVALVSDAGMPSISDPGYELVQSALNANIPVIPLPGANAALTALIASGLAPQPFYFYGFLPRQNKERTQAIEKLAAREETWILYESPHRLKETLKAIIKITGNDRKIVLCRELTKRFEEFLRGTVEDALNWAMDEEVRGEFCLIIEGNANPPLAEEQLWWQELDIKTHVSTVMEQENVSSKDAIKTVMKARNLPKREVYSAYHEIKEGHHHHHH | soluble |
| MAHHHHHHMNEIVINNLNYNYYNGIQRTRIKALQNVNLCFERGMRILVCGKNGAGKSTLLSIIAGKKLIKENEVLIFNKQAFHDTDISNKIGYVGEWWSEEYAMNISIKDFCFNYEYTKRYKNLLKLFELDENKIISNLSKGERKKVQIMVNIIVRKDIYIFDEATESLDLVSRKLLLE | soluble |
| MAGDPMWKTDVKLNADKFRKIDVHSHIQVLGYPFNVSITPQEFLSLMEAYNIEVAIISDVDNENIAKIVREYPDKLVGIYWANPRDKNSIKEAEKFLEKFEFRGIKLHPLLNMFSPADPKVEDIMRIAEEFNVHVQVHSGHPPTSLPWQIEELARKFPEVKIVMVHMGHGNAYYIQGAIEVAERNENVYLETSGMPMPSKIAEAYKVAPKRVVFGIDLPCHHPVVEIAKVLTSGLDEKGMERVFYENAKVLLLEHHHHHH | not soluble |
| MQPKLIILRGNSGSGKTTIANALHQCLKEQSLLISQDVVRREMLRVKDETGNLSIALLKQLVAFGYQECQYVIVEGIFQKAIYHSFFQEIIHLFEGNVQVYYFDISFEETLKRHSQRNKNQEFGVVEMKRWWLPEDYLGFPGEQRLSEQLSEKQIIRQILADIQ | not soluble |
| MKKWLPAFLFLSLSGCNDALAANQSTMFYSFNDNIYRPQLSVKVTDIVQFIVDINSASSTATLSYVACNGFTWTHGLYWSEYFAWLVVPKHVSYNGYNIYLELQSRGSFSLDAEDNDNYYLTKGFAWDEANTSGQTCFNIGEKRSLAWSFGGVTLNARLPVDLPKGDYTFPVKFLRGIQRNNYDYIGGRYKIPSSLMKTFPFNGTLNFSIKNTGGCRPSAQSLEINHGDLSINSANNHYAAQTLSVSCDVPTNIRFFLLSNTNPAYSHGQQFSVGLGHGWDSIISINGVDTGETTMRWYRAGTQNLTTGSRLYGESSKIQPGVLSGSATLLMILP | soluble |
| MLLKRRLFIAASLFAMHLSPALAADAVSFAPQPPAIDAGAWVLMDYTTGQVLTAGNEHQQRNPASLTKLMTGYVVDRAIDSHRISPDDIVTVGRDAWAKDNPVFVGSSLMFLKEGDRVSVRDLSRGLIVDSGNDACVALADYIAGGQPQFVAMMNSYVKKLNLQDTHFETVHGLDAPGQHSSAYDLAVLSRAIIHGEPEFYHMYSEKSLTWNGITQQNRNGLLWDKTMHIDGLKTGHTSGAGFNLIASAVDGQRRLIAVVMGAKSSKGREEQARKLLQWGQQNFATVQILHSGKKVGSERIWYGDKEKIALGTEQDFWMALPKAEIPHIKAKYVLDRKELEAPIAAHQQVGEIELYDRDKLIAQWPLVTLESVGKGGMFSRLSDYFQHKA | not soluble |
| MAHHHHHHMEGEEYDKILVLNFGSQYFHLIVKRLNNIKIFSETKDYGVELKDIKDMNIKGVILSGGPYSVTEAGSPHLKKEVFEYFLEKKIPIFGICYGMQEIAVQMNGEVKKSKTSEYGCTDVNILRNDNINNITYCRNFGDSSSAMDLYSNYKLMNETCCLFENIKSDITTVWMNHNDEVTKIPENFYLVSSSENCLICSIYNKEYNIYGVQYHPEVYESLDGELMFYNFAYNICKCKKQFDPIRYHELELKNIEKYKHDHYVIAAMSGGIDSTVAAAYTHKIFKERFFGIFIDNGLLRKNEAENVYTFLKSTFPDMNITKIDASENFLSNLQGVTDPEQKRKIIGKLFIEEFEKAVNNIDIDINKTFLLQGTLYPDIIESKCSKNLSDTIKTHHNVGGLPKNLKFKLFEPFKYLFKDDVKTLSRELNLPEEITNRHPFPGPGLAIRVIGEINKHKLNILREVDDIFINDLKQYGLYNQISQAFAVLLSSKSVGVRGDARSYDYVCVLRAVKTSSFMTANWYQIPYDILDKITTRILSEVKGVNRILYDVSSKPPATIEFE | soluble |
| MGSDKIHHHHHHMTKPFYWNELNTYDFASLSPDSTIAVLPIASTEQHGPHLPIATDVAIANGMLAELKRQRPDDLNFLVLPTQEIGKANEHVYGPGTLSLSADLLIAAWTAIGAKVAEAGLRKLVIVNSHGGNVDIMSIVGRELRVRHKMAVVSTQWSRFGNPEGMISEHENRYGIHGGEVETSLMLHFRPELVRMDKAENFVSKAEWMKERSDFLQPLPPHSLAWIAHDLNPAGVVGDASKGTAEKGEAICRHQVSGFIQLLRDVRDYPLSALYSPE | not soluble |
| MGSDKIHHHHHHMAAVDLEKLRASGAGKAIGVLTSGGDAQGMNAAVRAVTRMGIYVGAKVFLIYEGYEGLVEGGENIKQANWLSVSNIIQLGGTIIGSARCKAFTTREGRRAAAYNLVQHGITNLCVIGGDGSLTGANIFRSEWGSLLEELVAEGKISETTARTYSHLNIAGLVGSIDNDFCGTDMTIGTDSALHRIMEVIDAITTTAQSHQRTFVLEVMGRHCGYLALVSALASGADWLFIPEAPPEDGWENFMCERLGETRSRGSRLNIIIIAEGAIDRNGKPISSSYVKDLVVQRLGFDTRVTVLGHVQRGGTPSAFDRILSSKMGMEAVMALLEATPDTPACVVTLSGNQSVRLPLMECVQMTKEVQKAMDDKRFDEATQLRGGSFENNWNIYKLLAHQKPPKEKSNFSLAILNVGAPAAGMNAAVRSAVRTGISHGHTVYVVHDGFEGLAKGQVQEVGWHDVAGWLGRGGSMLGTKRTLPKGQLESIVENIRIYGIHALLVVGGFEAYEGVLQLVEARGRYEELCIVMCVIPATISNNVPGTDFSLGSDTAVNAAMESCDRIKQSASGTKRRVFIVETMGGYCGYLATVTGIAVGADAAYVFEDPFNIHDLKVNVEHMTEKMKTDIQRGLVLRNEKCHDYYTTEFLYNLYSSEGKGVFDCRTNVLGHLQQGGAPTPFDRNYGTKLGVKAMLWLSEKLREVYRKGRVFANAPDSACVIGLKKKAVAFSPVTELKKDTDFEHRMPREQWWLSLRLMLKMLAQYRISMAAYVSGELEHVTRRTLSMDKGF | not soluble |
| GPGSMDRGYPRRREGGASFGGGGFGGVGGFSGGSGGPPAGGPRRRFRSDFDPEEYAPRRKLHGQRPVDFYSPAIRHVLTRLVPRSTPYSYHVAPHEYYTKDLVTASVTNYNASTALCTQWVNTSYHPDSKGGRIRTPLYALQWSPSGRRLLCSTGRGEFLLFNGQSFGVEVKTVAHEDNRPCRAIAWGRRHDLILSGDDAGKLKMWMPNFVFMSEVDTSHRAVREISWAPLELKFCTAGQDGSAKVWDTNTVGAHTATAGASDGNQAVLEEVKLEGHGGDVTTAHWHPYRALIATGSQDTQCRLWDPRTASRGSIAALHGHSQALTCVRWHPDGRTLLSASKDGTVKLWDIRKTQPEVKRFTGHTDAVDKVDWHPTVSDLFASTGADGSVMYWMVAEGDGTMTHGVEEVVHDAAMIEAAHEKFRDKPNPVHCVAWSPLGNILASSGHEVKYWTRNKPGALEEKERGVESDILDEQGHVMV | not soluble |
| MRGSHHHHHHGLVPRGSMKITVLGCGALGQLWLTALCKQGHEVQGWLRVPQPYCSVNLVETDGSIFNESLTANDPDFLATSDLLLVTLKAWQVSDAVKSLASTLPVTTPILLIHNGMGTIEELQNIQQPLLMGTTTHAARRDGNVIIHVANGITHIGPARQQDGDYSYLADILQTVLPDVAWHNNIRAELWRKLAVNCVINPLTAIWNCPNGELRHHPQEIMQICEEVAAVIEREGHHTSAEDLRDYVMQVIDATAENISSMLQDIRALRHTEIDYINGFLLRRARAHGIAVPENTRLFEMVKRKESEYERIGTGLPRPW | soluble |

Reference: the DeepSol protein solubility set
